Experimental data published in patent publication US20240247080A1, “GLP1/GIP/NPY2 RECEPTOR TRIPLE AGONISTS” (Boehringer Ingelheim International GmbH, priority 2022, published 2024).
Starred links: 1 amine or outer side, 2 acyl side, 3 side chain; linkers in the order of their positions; H or OH if unused. Non-standard residues stand in square brackets, D forms with d. Groups on a side chain read outwards from the residue. No end group written: not given here. *: point of attachment. C20 diacid = O=C(O)CCCCCCCCCCCCCCCCCCC(=O)*; C18 diacid = O=C(O)CCCCCCCCCCCCCCCCC(=O)*; γGlu = O=C(O)[C@H](CCC(=O)[*:2])N[*:1]; εLys = N[C@@H](CCCCN[*:1])C(=O)[*:2]; AEEA = NCCOCCOCC(=O)O; Aib = CC(C)(N)C(=O)O

Tests used:
Assay in all cases: cell-based or functional assay
human GLP-1 receptor [1] = biological target: human GLP-1 receptor (human, UniProt P43220 24-463)
human GIP receptor [2] = biological target: T1, human GIP receptor (human, UniProt P48546 22-466)
T1 sequence (looked up): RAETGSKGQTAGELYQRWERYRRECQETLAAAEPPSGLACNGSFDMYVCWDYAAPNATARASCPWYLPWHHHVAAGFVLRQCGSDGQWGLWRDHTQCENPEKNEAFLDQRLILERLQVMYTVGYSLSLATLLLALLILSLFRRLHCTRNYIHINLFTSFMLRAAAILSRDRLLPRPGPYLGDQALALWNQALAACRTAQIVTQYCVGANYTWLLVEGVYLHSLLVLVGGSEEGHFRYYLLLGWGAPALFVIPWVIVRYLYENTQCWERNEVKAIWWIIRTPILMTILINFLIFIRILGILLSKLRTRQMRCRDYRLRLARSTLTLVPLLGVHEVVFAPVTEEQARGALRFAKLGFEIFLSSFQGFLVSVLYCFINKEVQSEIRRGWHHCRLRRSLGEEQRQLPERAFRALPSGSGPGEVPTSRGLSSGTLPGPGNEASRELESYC

[3] = biological target: T2, human neuropeptide Y2 receptor (human, UniProt P49146 1-381)
T2 sequence (looked up): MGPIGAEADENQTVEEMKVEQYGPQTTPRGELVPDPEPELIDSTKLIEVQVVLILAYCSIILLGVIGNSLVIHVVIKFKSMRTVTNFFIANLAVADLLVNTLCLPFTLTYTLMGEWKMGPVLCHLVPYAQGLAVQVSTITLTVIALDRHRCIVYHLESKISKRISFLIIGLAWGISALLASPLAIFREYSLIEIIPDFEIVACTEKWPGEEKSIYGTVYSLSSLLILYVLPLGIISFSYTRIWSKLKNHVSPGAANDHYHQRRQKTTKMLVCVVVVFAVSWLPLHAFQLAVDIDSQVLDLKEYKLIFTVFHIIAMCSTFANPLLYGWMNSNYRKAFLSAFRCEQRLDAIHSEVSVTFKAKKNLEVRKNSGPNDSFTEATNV

human GIP receptor [4] = biological target: T3, human GIP receptor (human, UniProt P48546 22-466); remark: listed apart in the source
T3 sequence (looked up): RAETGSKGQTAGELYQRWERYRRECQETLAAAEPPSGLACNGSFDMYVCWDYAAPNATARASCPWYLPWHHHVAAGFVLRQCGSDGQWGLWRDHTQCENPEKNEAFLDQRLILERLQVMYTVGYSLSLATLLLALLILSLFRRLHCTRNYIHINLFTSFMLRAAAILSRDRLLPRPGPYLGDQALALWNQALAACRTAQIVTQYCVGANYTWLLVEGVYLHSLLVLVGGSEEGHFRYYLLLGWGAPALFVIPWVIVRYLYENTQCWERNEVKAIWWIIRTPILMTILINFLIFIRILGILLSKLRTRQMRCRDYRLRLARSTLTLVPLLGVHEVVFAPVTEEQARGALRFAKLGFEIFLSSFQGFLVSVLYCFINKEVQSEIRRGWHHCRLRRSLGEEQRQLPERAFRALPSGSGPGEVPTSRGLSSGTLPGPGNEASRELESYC

[5] = biological target: T4, human neuropeptide Y2 (NPY2) receptor (human, UniProt P49146 1-381)
T4 sequence (looked up): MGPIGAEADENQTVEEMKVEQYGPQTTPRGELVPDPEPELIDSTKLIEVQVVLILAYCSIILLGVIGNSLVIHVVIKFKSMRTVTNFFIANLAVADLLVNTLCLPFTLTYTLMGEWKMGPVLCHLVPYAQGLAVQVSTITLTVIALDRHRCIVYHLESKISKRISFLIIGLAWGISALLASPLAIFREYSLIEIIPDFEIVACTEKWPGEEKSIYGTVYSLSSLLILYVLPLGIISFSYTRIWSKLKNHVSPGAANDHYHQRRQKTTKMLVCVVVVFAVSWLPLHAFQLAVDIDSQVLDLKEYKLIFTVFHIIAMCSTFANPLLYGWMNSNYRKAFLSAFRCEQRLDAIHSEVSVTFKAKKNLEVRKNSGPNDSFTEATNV

human GLP-1 receptor [6] = biological target: human GLP-1 receptor (human, UniProt P43220 24-463); remark: listed apart in the source

B1: Compound 259 (peptide)
peptide: YXEGTFTSDYSIXLEKQAQXAFVEWLIKGGPSSGASLRHYYNWLTRQRY
modifications: Aib at 2, 13, 20; K28 side chain acylated with C18DA-gGlu-gGlu-gGlu-gGlu-gGlu-gGlu-eLys; C-terminal amide (NH2)
Human GLP-1 receptor [1]
  EC50 hGLP1R 0.5% hP (CreLuc): 0.09 nM
  EC50 hGLP1R 100% hP (CreLuc): 2.55 nM
Human GIP receptor [2]
  EC50 hGIPR 0.5% hP (CreLuc): 0.22 nM
  EC50 hGIPR 100% hP (CreLuc): 0.91 nM
[3]
  EC50 hNPY2R 0.5% hP (CreLuc): 10.7 nM
  EC50 hNPY2R 100% hP (CreLuc): 29.3 nM

## Y[Aib]EGTFTSDYSI[Aib]LEKQAQ[Aib]AFVEWLIK([εLys-Glu-γGlu-γGlu-γGlu-γGlu-C20 diacid])GGPSYYVSLRHYYNWLTRQRY-NH2 (also: TFA salt) [Compound 75]
Human GIP receptor [4]
  EC50, CreLuc assay, 0.5% hP: 0.54 nM
  EC50, CreLuc assay, 100% hP: 12.4 nM
[5]
  EC50, CreLuc assay, 0.5% hP: 7.12 nM
  EC50, CreLuc assay, 100% hP: 33.5 nM
Human GLP-1 receptor [6]
  EC50, CreLuc assay, 0.5% hP: 0.35 nM
  EC50, CreLuc assay, 100% hP: 23.9 nM

B2: Compound 76 (peptide)
peptide: YXEGTFTSDYSIXLEKQAQXAFVEWLIKGGPSSGASXRHYXNWLTRQRY
modifications: Aib at 2, 13, 20, 37, 41; K28 side chain: C20DA-gGlu-gGlu-Glu-gGlu-gGlu-gGlu-eLys; C-terminal NH2
Human GIP receptor [4]
  EC50, CreLuc assay, 0.5% hP: 0.2 nM
  EC50, CreLuc assay, 100% hP: 1.39 nM
[5]
  EC50, CreLuc assay, 0.5% hP: 31.5 nM
  EC50, CreLuc assay, 100% hP: 158 nM
Human GLP-1 receptor [6]
  EC50, CreLuc assay, 0.5% hP: 0.1 nM
  EC50, CreLuc assay, 100% hP: 1.91 nM

## Y[Aib]EGTFTSDYSI[Aib]LEKQAQ[Aib]AFVQWLIK([AEEA-AEEA-γGlu-γGlu-γGlu-γGlu-C20 diacid])GGPEEPASLRHYYNWLTRQRY-NH2 (also: TFA salt) [Compound 77]
Human GIP receptor [4]
  EC50, CreLuc assay, 0.5% hP: 0.32 nM
  EC50, CreLuc assay, 100% hP: 2.16 nM
[5]
  EC50, CreLuc assay, 0.5% hP: 13.7 nM
  EC50, CreLuc assay, 100% hP: 46.3 nM
Human GLP-1 receptor [6]
  EC50, CreLuc assay, 0.5% hP: 0.24 nM
  EC50, CreLuc assay, 100% hP: 16.2 nM

B3: Compound 9 (peptide)
peptide: YXEGTFTSDYSIXLEKQAQXAFVEWLIKGGPSSYVSIRHYYNWLTRQRY
modifications: Aib at 2, 13, 20; K28 side chain: C20DA-gGlu-gGlu-gGlu-gGlu-gGlu-gGlu-eLys; C-terminal NH2
Human GIP receptor [4]
  EC50, CreLuc assay, 0.5% hP: 0.21 nM
  EC50, CreLuc assay, 100% hP: 2.03 nM
[5]
  EC50, CreLuc assay, 0.5% hP: 15.2 nM
  EC50, CreLuc assay, 100% hP: 18.9 nM
Human GLP-1 receptor [6]
  EC50, CreLuc assay, 0.5% hP: 0.46 nM
  EC50, CreLuc assay, 100% hP: 6.64 nM

B4: Compound 78 (peptide)
peptide: YXEGTFTSDYSIXLEKQAQXAFVQWLIKGGPSEYVSLRHYYNWLTRQRY
modifications: Aib at 2, 13, 20; K28 side chain: C20DA-gGlu-gGlu-gGlu-gGlu-gGlu-gGlu-eLys; C-terminal NH2
Human GIP receptor [4]
  EC50, CreLuc assay, 0.5% hP: 0.53 nM
  EC50, CreLuc assay, 100% hP: 6.64 nM
[5]
  EC50, CreLuc assay, 0.5% hP: 12.9 nM
  EC50, CreLuc assay, 100% hP: 24.6 nM
Human GLP-1 receptor [6]
  EC50, CreLuc assay, 0.5% hP: 0.64 nM
  EC50, CreLuc assay, 100% hP: 12.2 nM

B5: Compound 79 (peptide)
peptide: YXEGTFTSDYSIXLEKQAQXAFVEWLIKGGPSSGASLRHYYNLXTRQRY
modifications: Aib at 2, 13, 20, 44; K28 side chain: C20DA-gGlu-gGlu-gGlu-gGlu-gGlu-gGlu-eLys; C-terminal NH2
Human GIP receptor [4]
  EC50, CreLuc assay, 0.5% hP: 0.29 nM
  EC50, CreLuc assay, 100% hP: 1.86 nM
[5]
  EC50, CreLuc assay, 0.5% hP: 87.6 nM
  EC50, CreLuc assay, 100% hP: 265 nM
Human GLP-1 receptor [6]
  EC50, CreLuc assay, 0.5% hP: 0.11 nM
  EC50, CreLuc assay, 100% hP: 2.09 nM

B6: Compound 80 (peptide)
peptide: YXEGTFTSDYSIXLEKQAQXAFVEWLIKGGPSYYVSLRHYYNWLTRQRY
modifications: Aib at 2, 13, 20; K28 side chain: C20DA-gGlu-gGlu-gGlu-gGlu-gGlu-gGlu-eLys; C-terminal NH2
Human GIP receptor [4]
  EC50, CreLuc assay, 0.5% hP: 0.79 nM
  EC50, CreLuc assay, 100% hP: 6.76 nM
[5]
  EC50, CreLuc assay, 0.5% hP: 12.8 nM
  EC50, CreLuc assay, 100% hP: 54.8 nM
Human GLP-1 receptor [6]
  EC50, CreLuc assay, 0.5% hP: 1.6 nM
  EC50, CreLuc assay, 100% hP: 16.3 nM

## Y[Aib]EGTFTSDYSI[Aib]LEKQAQ[Aib]EFVEWLIK([AEEA-AEEA-γGlu-γGlu-γGlu-C18 diacid])GGPESGASLRHYYNWLTRQRY-NH2 (also: TFA salt) [Compound 81]
Human GIP receptor [4]
  EC50, CreLuc assay, 0.5% hP: 0.27 nM
  EC50, CreLuc assay, 100% hP: 1.79 nM
[5]
  EC50, CreLuc assay, 0.5% hP: 11.1 nM
  EC50, CreLuc assay, 100% hP: 36.4 nM
Human GLP-1 receptor [6]
  EC50, CreLuc assay, 0.5% hP: 0.6 nM
  EC50, CreLuc assay, 100% hP: 15.4 nM

B7: Compound 83 (peptide)
peptide: YXEGTFTSDYSIXLEKQAQXAFVEWLIKGGPSSGASLRHYYNWLTRQRY
modifications: Aib at 2, 13, 20; NMeR 48; K28 side chain: C20DA-gGlu-gGlu-gGlu-gGlu-gGlu-gGlu-eLys; C-terminal NH2
Human GIP receptor [4]
  EC50, CreLuc assay, 0.5% hP: 0.13 nM
  EC50, CreLuc assay, 100% hP: 1.06 nM
[5]
  EC50, CreLuc assay, 0.5% hP: 28.8 nM
  EC50, CreLuc assay, 100% hP: 80.6 nM
Human GLP-1 receptor [6]
  EC50, CreLuc assay, 0.5% hP: 0.17 nM
  EC50, CreLuc assay, 100% hP: 2.87 nM

B8: Compound 84 (peptide)
peptide: YXEGTFTSDYSIXLEKQAQXAFVEWLIKGGPSSGQSLRHYYNWLTRQRY
modifications: Aib at 2, 13, 20; K28 side chain: C20DA-gGlu-gGlu-gGlu-gGlu-gGlu-gGlu-eLys; C-terminal NH2
Human GIP receptor [4]
  EC50, CreLuc assay, 0.5% hP: 0.23 nM
  EC50, CreLuc assay, 100% hP: 1.43 nM
[5]
  EC50, CreLuc assay, 0.5% hP: 8.31 nM
  EC50, CreLuc assay, 100% hP: 35.2 nM
Human GLP-1 receptor [6]
  EC50, CreLuc assay, 0.5% hP: 0.13 nM
  EC50, CreLuc assay, 100% hP: 2.63 nM
